In US20240117018A1:

Columns and labels:
Assay in all cases: cell-based or functional assay
[1] = target: HIV-1 Env of pseudovirus C2101.c01 (HIV-1)
[2] = target: HIV-1 Env of pseudovirus 3103.v3.c10 (HIV-1)
[3] = target: HIV-1 Env of pseudovirus C3347.c11 (HIV-1)
[4] = target: HIV-1 Env of pseudovirus 231965.c01 (HIV-1)
[5] = target: HIV-1 Env of pseudovirus 6952.v1.c20 (HIV-1)
[6] = target: HIV-1 Env of pseudovirus BJOX009000.02.4 (HIV-1)
[7] = target: HIV-1 Env of pseudovirus 6041.v3.c23 (HIV-1)
[8] = target: HIV-1 Env of pseudovirus X2088_c9 (HIV-1)
[9] = target: HIV-1 Env of pseudovirus T278-50 (HIV-1)
[10] = target: HIV-1 Env of pseudovirus 3365.v2.c2 (HIV-1)
[11] = target: HIV-1 Env of pseudovirus 3415.v1.c1 (HIV-1)
[12] = target: HIV-1 Env of pseudovirus T257-31 (HIV-1)

10E8 (antibody)
IC50 neutralization (TZM.bl) [1]: 1.92 µg/mL | IC80 neutralization (TZM.bl) [1]: 8.26 µg/mL | IC50 neutralization (TZM.bl) [2]: > 10 µg/mL | IC80 neutralization (TZM.bl) [2]: > 10 µg/mL | IC50 neutralization (TZM.bl) [3]: 0.016 µg/mL | IC80 neutralization (TZM.bl) [3]: 0.167 µg/mL | IC50 neutralization (TZM.bl) [4]: > 10 µg/mL | IC80 neutralization (TZM.bl) [4]: > 10 µg/mL | IC50 neutralization (TZM.bl) [5]: 0.343 µg/mL | IC80 neutralization (TZM.bl) [5]: 1.91 µg/mL | IC50 neutralization (TZM.bl) [6]: 1.57 µg/mL | IC80 neutralization (TZM.bl) [6]: 9.95 µg/mL | IC50 neutralization (TZM.bl) [7]: 2.33 µg/mL | IC80 neutralization (TZM.bl) [7]: 9.77 µg/mL | IC50 neutralization (TZM.bl) [8]: > 10 µg/mL | IC80 neutralization (TZM.bl) [8]: > 10 µg/mL | IC50 neutralization (TZM.bl) [9]: 0.949 µg/mL | IC80 neutralization (TZM.bl) [9]: 7.46 µg/mL

10-1074 (antibody)
IC50 neutralization (TZM.bl) [1]: > 50 µg/mL | IC80 neutralization (TZM.bl) [1]: > 50 µg/mL | IC50 neutralization (TZM.bl) [2]: 0.037 µg/mL | IC80 neutralization (TZM.bl) [2]: 0.101 µg/mL | IC50 neutralization (TZM.bl) [3]: > 50 µg/mL | IC80 neutralization (TZM.bl) [3]: > 50 µg/mL | IC50 neutralization (TZM.bl) [4]: > 50 µg/mL | IC80 neutralization (TZM.bl) [4]: > 50 µg/mL | IC50 neutralization (TZM.bl) [5]: 0.037 µg/mL | IC80 neutralization (TZM.bl) [5]: 0.138 µg/mL | IC50 neutralization (TZM.bl) [6]: > 50 µg/mL | IC80 neutralization (TZM.bl) [6]: > 50 µg/mL | IC50 neutralization (TZM.bl) [7]: > 50 µg/mL | IC80 neutralization (TZM.bl) [7]: > 50 µg/mL | IC50 neutralization (TZM.bl) [8]: 0.003 µg/mL | IC80 neutralization (TZM.bl) [8]: 0.014 µg/mL | IC50 neutralization (TZM.bl) [9]: 2.15 µg/mL | IC80 neutralization (TZM.bl) [9]: 18.3 µg/mL

PG9 (antibody)
IC50 neutralization (TZM.bl) [1]: 0.034 µg/mL | IC80 neutralization (TZM.bl) [1]: 0.099 µg/mL | IC50 neutralization (TZM.bl) [2]: 28 µg/mL | IC80 neutralization (TZM.bl) [2]: > 50 µg/mL | IC50 neutralization (TZM.bl) [3]: 0.032 µg/mL | IC80 neutralization (TZM.bl) [3]: 0.113 µg/mL | IC50 neutralization (TZM.bl) [4]: 1.28 µg/mL | IC80 neutralization (TZM.bl) [4]: 48 µg/mL | IC50 neutralization (TZM.bl) [5]: > 50 µg/mL | IC80 neutralization (TZM.bl) [5]: > 50 µg/mL | IC50 neutralization (TZM.bl) [6]: 1.73 µg/mL | IC80 neutralization (TZM.bl) [6]: 8.21 µg/mL | IC50 neutralization (TZM.bl) [7]: 0.244 µg/mL | IC80 neutralization (TZM.bl) [7]: 3.64 µg/mL | IC50 neutralization (TZM.bl) [8]: > 50 µg/mL | IC80 neutralization (TZM.bl) [8]: > 50 µg/mL | IC50 neutralization (TZM.bl) [9]: 0.393 µg/mL | IC80 neutralization (TZM.bl) [9]: 3.19 µg/mL

N49P19 (antibody)
neutralization IC50 [1]: 0.978 µg/mL | neutralization IC80 [1]: 4.19 µg/mL | neutralization MPI [1]: 100 | neutralization IC50 [2]: > 50 µg/mL | neutralization IC80 [2]: > 50 µg/mL | neutralization MPI [2]: 0 | neutralization IC50 [10]: 0.579 µg/mL | neutralization IC80 [10]: 2.09 µg/mL | neutralization MPI [10]: 99 | neutralization IC50 [3]: 3.94 µg/mL | neutralization IC80 [3]: 25.7 µg/mL | neutralization MPI [3]: 87 | neutralization IC50 [4]: > 50 µg/mL | neutralization IC80 [4]: > 50 µg/mL | neutralization MPI [4]: 22 | neutralization IC50 [5]: > 50 µg/mL | neutralization IC80 [5]: > 50 µg/mL | neutralization MPI [5]: 0 | neutralization IC50 [6]: 3.66 µg/mL | neutralization IC80 [6]: 25.6 µg/mL | neutralization MPI [6]: 87 | neutralization IC50 [7]: > 50 µg/mL | neutralization IC80 [7]: > 50 µg/mL | neutralization MPI [7]: 32 | neutralization IC50 [11]: 0.462 µg/mL | neutralization IC80 [11]: 2.04 µg/mL | neutralization MPI [11]: 100 | neutralization IC50 [8]: 1.4 µg/mL | neutralization IC80 [8]: 3.76 µg/mL | neutralization MPI [8]: 99 | neutralization IC50 [12]: 0.661 µg/mL | neutralization IC80 [12]: 3 µg/mL | neutralization MPI [12]: 100 | neutralization IC50 [9]: > 50 µg/mL | neutralization IC80 [9]: > 50 µg/mL | neutralization MPI [9]: 35

N49P9.1 (antibody)
neutralization IC50 [1]: 0.085 µg/mL | neutralization IC80 [1]: 0.227 µg/mL | neutralization MPI [1]: 100 | neutralization IC50 [2]: > 50 µg/mL | neutralization IC80 [2]: > 50 µg/mL | neutralization MPI [2]: 45 | neutralization IC50 [10]: 0.055 µg/mL | neutralization IC80 [10]: 0.725 µg/mL | neutralization MPI [10]: 100 | neutralization IC50 [3]: 0.029 µg/mL | neutralization IC80 [3]: 0.083 µg/mL | neutralization MPI [3]: 100 | neutralization IC50 [4]: 0.474 µg/mL | neutralization IC80 [4]: 2.24 µg/mL | neutralization MPI [4]: 100 | neutralization IC50 [5]: 0.119 µg/mL | neutralization IC80 [5]: 0.389 µg/mL | neutralization MPI [5]: 100 | neutralization IC50 [6]: 0.965 µg/mL | neutralization IC80 [6]: 3.93 µg/mL | neutralization MPI [6]: 100 | neutralization IC50 [7]: 0.282 µg/mL | neutralization IC80 [7]: 6.78 µg/mL | neutralization MPI [7]: 90 | neutralization IC50 [11]: 0.21 µg/mL | neutralization IC80 [11]: 1.37 µg/mL | neutralization MPI [11]: 100 | neutralization IC50 [8]: 0.091 µg/mL | neutralization IC80 [8]: 0.392 µg/mL | neutralization MPI [8]: 100 | neutralization IC50 [12]: 0.508 µg/mL | neutralization IC80 [12]: 1.82 µg/mL | neutralization MPI [12]: 100 | neutralization IC50 [9]: > 50 µg/mL | neutralization IC80 [9]: > 50 µg/mL | neutralization MPI [9]: 5

PG16 (antibody)
IC50 neutralization (TZM.bl) [1]: 0.012 µg/mL | IC80 neutralization (TZM.bl) [1]: 0.238 µg/mL | IC50 neutralization (TZM.bl) [2]: 25.4 µg/mL | IC80 neutralization (TZM.bl) [2]: > 50 µg/mL | IC50 neutralization (TZM.bl) [3]: 0.008 µg/mL | IC80 neutralization (TZM.bl) [3]: 0.045 µg/mL | IC50 neutralization (TZM.bl) [4]: 1.44 µg/mL | IC80 neutralization (TZM.bl) [4]: > 50 µg/mL | IC50 neutralization (TZM.bl) [5]: 21.9 µg/mL | IC80 neutralization (TZM.bl) [5]: > 50 µg/mL | IC50 neutralization (TZM.bl) [6]: 1.19 µg/mL | IC80 neutralization (TZM.bl) [6]: 22.1 µg/mL | IC50 neutralization (TZM.bl) [7]: 0.048 µg/mL | IC80 neutralization (TZM.bl) [7]: 0.256 µg/mL | IC50 neutralization (TZM.bl) [8]: > 50 µg/mL | IC80 neutralization (TZM.bl) [8]: > 50 µg/mL | IC50 neutralization (TZM.bl) [9]: 0.227 µg/mL | IC80 neutralization (TZM.bl) [9]: 18.6 µg/mL

N49P9 (antibody)
neutralization IC50 [1]: 0.051 µg/mL | neutralization IC80 [1]: 0.209 µg/mL | neutralization MPI [1]: 100 | neutralization IC50 [2]: 17.6 µg/mL | neutralization IC80 [2]: > 50 µg/mL | neutralization MPI [2]: 55 | neutralization IC50 [10]: 0.059 µg/mL | neutralization IC80 [10]: 0.198 µg/mL | neutralization MPI [10]: 100 | neutralization IC50 [3]: 0.023 µg/mL | neutralization IC80 [3]: 0.065 µg/mL | neutralization MPI [3]: 100 | neutralization IC50 [4]: 0.253 µg/mL | neutralization IC80 [4]: 1.16 µg/mL | neutralization MPI [4]: 100 | neutralization IC50 [5]: 0.095 µg/mL | neutralization IC80 [5]: 0.258 µg/mL | neutralization MPI [5]: 100 | neutralization IC50 [6]: 0.727 µg/mL | neutralization IC80 [6]: 3.29 µg/mL | neutralization MPI [6]: 100 | neutralization IC50 [7]: 0.089 µg/mL | neutralization IC80 [7]: 0.777 µg/mL | neutralization MPI [7]: 95 | neutralization IC50 [11]: 0.137 µg/mL | neutralization IC80 [11]: 0.502 µg/mL | neutralization MPI [11]: 100 | neutralization IC50 [8]: 0.07 µg/mL | neutralization IC80 [8]: 0.252 µg/mL | neutralization MPI [8]: 100 | neutralization IC50 [12]: 0.216 µg/mL | neutralization IC80 [12]: 0.821 µg/mL | neutralization MPI [12]: 100 | neutralization IC50 [9]: > 50 µg/mL | neutralization IC80 [9]: > 50 µg/mL | neutralization MPI [9]: 25
